Publication PMC3285688, “Active Site Mutations Change the Cleavage Specificity of Neprilysin” (PLoS ONE, 2012)

Tests used:
Assay type in all cases: biochemical
[1] = Hydrolysis of synthetic substrate Glut-Ala-Ala-Phe-MNA by NEP and mutants (fluorogenic); conditions: for Km: Glut-Ala-Ala-Phe-MNA 20 to 500 µM, Michaelis-Menten fit; for Activity relative to wild-type enzyme (Glut-Ala-Ala-Phe-MNA): pH 6.5, 37°C
Procedure: Reactions of 400 µl contained 100 µM Glut-Ala-Ala-Phe-MNA, 1 µg of aminopeptidase and 15 to 100 ng of NEP or mutant NEP depending on their activity in 20 mM MES buffer, pH 6.5. Activity was monitored with a Spectra Max Gemini XS plate reader using an excitation wavelength of 340 nm and an emission wavelength of 425 nm.
(§1) Kinetic constants for NEP and its mutants were obtained using the assay conditions noted above, but with Glut-Ala-Ala-Phe-MNA varied from 20 to 500 µM. Typically 12 data points were obtained. The data were fit to the Michaelis-Menten equation using Prism4 software. The Ki for insulin B chain was obtained by measuring the rate of Glut-Ala-Ala-Phe-MNA hydrolysis in the presence of varying concentrations of insulin B chain from 1 to 40 µM. Data were fit to a Dixon plot (1/rate versus [insulin B chain]) using Prism4 software and the ID50 obtained as the –x intercept, where ID50 corresponds to the concentration of insulin producing 50% inhibition. The actual Ki was obtained from the equation: ID50 = Ki (1+ [Glut-Ala-Ala-Phe-MNA]/KmGlut-Ala-Ala-Phe-MNA), [33].

[2] = system: leu-ENK; assay: Rate of leu-ENK hydrolysis (HPLC)
Procedure: (§2) Cleavage of physiological peptides was measured via reverse phase high performance liquid chromatography (HPLC) following incubation of the purified NEP or its mutants with 15 µM insulin B chain (Sigma Aldrich), 24 µM Aß1–40 (Anaspec), or 64 µM leu-ENK (Sigma) in 100 µL of 20 mM MES, pH 6.5, at 37°C. Reactions were run in triplicate. HPLC was carried out in a Vydac C4 column using a linear gradient from 0.1% trifluoroacetic acid (TFA) in 95% water, 5% acetonitrile to 0.1% TFA in 50% acetonitrile/water at a flow rate of 1 mL/min. Peptides and hydrolysis products were detected at 214 nm and quantified by measuring peak areas. Peptides obtained from HPLC were analyzed on an Applied Biosystems 4800 MALDI TOF/TOF Proteomics Analyzer at the University of Kentucky Proteomics core. This facility is supported in part by grant P20RR020171 from the NIH/NCRR.
(§3) Statistical analysis comparing wild-type NEP and its mutants was performed with Prism 4 software using a two-tailed paired t-test with a 95% confidence interval.

[3] = biological target: insulin B chain; assay: Insulin B chain as alternate substrate (competitive) inhibitor of Glut-Ala-Ala-Phe-MNA hydrolysis (Dixon plot); conditions: insulin B chain 1 to 40 µM as competitive inhibitor of Glut-Ala-Ala-Phe-MNA hydrolysis by the enzyme form, 37°C, 20 mM MES, pH 6.5, ID50 converted to Ki
Procedure: as §1

[4] = system: insulin B chain; assay: Dual substrate assay: insulin B chain hydrolysis in presence of leu-ENK; conditions: 15 µM insulin B chain and 64 µM leu-ENK together, 37°C, 20 mM MES buffer, pH 6.5
Procedure: (§4) The rate of cleavage of a substrate mixture is determined by both the kcat for that substrate as well by the affinity for the substrate. […] This is expected, given that each peptide acts as a competitive inhibitor of the other. […] That is the ratio for leu-ENK/insulin B chain cleavage is 3 for NEP^S546E compared to 6 for wild-type NEP.
as §2

[5] = system: leu-ENK; assay: Dual substrate assay: leu-ENK hydrolysis in presence of insulin B chain; conditions: 15 µM insulin B chain and 64 µM leu-ENK together, 37°C, 20 mM MES buffer, pH 6.5
Procedure: as §4, §2

[6] = system: Aß1–40; assay: Rate of Aß1–40 hydrolysis (HPLC); conditions: 24 µM Aß1–40, 37°C, 20 mM MES buffer, pH 6.5; disappearance of substrate by HPLC; at least triplicate
Procedure: as §2, §3

[7] = system: leu-ENK and insulin B chain; assay: Dual substrate assay: substrate preference leu-ENK versus insulin B chain
Procedure: as §4, §2

[8] = system: insulin B chain; assay: Rate of insulin B chain hydrolysis (HPLC); conditions: 15 µM insulin B chain, 37°C, 20 mM MES buffer, pH 6.5; disappearance of substrate by HPLC; at least triplicate
Procedure: as §2, §3

B1: NEP^F563V: neprilysin active site mutant, Phe563 to valine (protein, UniProt P08473 2-750, looked up, variant F563V)
Neprilysin: GKSESQMDITDINTPKPKKKQRWTPLEISLSVLVLLLTIIAVTMIALYATYDDGICKSSDCIKSAARLIQNMDATTEPCTDFFKYACGGWLKRNVIPETSSRYGNFDILRDELEVVLKDVLQEPKTEDIVAVQKAKALYRSCINESAIDSRGGEPLLKLLPDIYGWPVATENWEQKYGASWTAEKAIAQLNSKYGKKVLINLFVGTDDKNSVNHVIHIDQPRLGLPSRDYYECTGIYKEACTAYVDFMISVARLIRQEERLPIDENQLALEMNKVMELEKEIANATAKPEDRNDPMLLYNKMTLAQIQNNFSLEINGKPFSWLNFTNEIMSTVNISITNEEDVVVYAPEYLTKLKPILTKYSARDLQNLMSWRFIMDLVSSLSRTYKESRNAFRKALYGTTSETATWRRCANYVNGNMENAVGRLYVEAAFAGESKHVVEDLIAQIREVFIQTLDDLTWMDAETKKRAEEKALAIKERIGYPDDIVSNDNKLNNEYLELNYKEDEYFENIIQNLKFSQSKQLKKLREKVDKDEWISGAAVVNAFYSSGRNQIVFPAGILQPPVFSAQQSNSLNYGGIGMVIGHEITHGFDDNGRNFNKDGDLVDWWTQQSASNFKEQSQCMVYQYGNFSWDLAGGQHLNGINTLGENIADNGGLGQAYRAYQNYIKKNGEEKLLPGLDLNHKQLFFLNFAQVWCGTYRPEYAVNSIKTDVHSPGNFRIIGTLQNSAEFSEAFHCRKNSYMNPEKKCRVW
Specific Activity (Glut-Ala-Ala-Phe-MNA cleavage) ([1]; 100 µM Glut-Ala-Ala-Phe-MNA, 37°C, 20 mM MES buffer, pH 6.5, fluorescence ex 340 nm, em 425 nm): 11.2 ± 0.3 pmol/min/ng | Km ([1]; 37°C, 20 mM MES buffer, pH 6.5): 51 ± 10 µM | Activity relative to wild-type enzyme (Glut-Ala-Ala-Phe-MNA) [1]: ~25% | leu-ENK cleavage rate as fraction of wild-type rate ([2]; 64 µM leu-ENK): 1/6 | Rate of hydrolysis of leu-ENK ([2]; 64 µM leu-ENK, 37°C, 20 mM MES buffer, pH 6.5, disappearance of substrate by HPLC, at least triplicate): 0.31 ± 0.02 pmol/min/ng | leu-ENK cleavage rate relative to wild-type NEP rate ([2]; 64 µM leu-ENK, pH 6.5, 37°C): less than 20% | Increase in preference for leu-ENK (over Aß1–40) ([2]; relative to NEP, from separate single-substrate rates): two fold | Ki [3]: 1000 ± 100 nM | Insulin B Chain hydrolysis rate, dual substrate assay [4]: 0.04 ± 0.01 pmol/min/ng | Insulin B Chain hydrolysis, activity relative to the uninhibited value ([4]; numbers in parenthesis): 0.67 | leu-ENK hydrolysis rate, dual substrate assay [5]: 0.23 ± 0.03 pmol/min/ng | leu-ENK hydrolysis, activity relative to the uninhibited value ([5]; numbers in parenthesis): 0.74 | Rate of hydrolysis of Aß1–40 [6]: 14 ± 1 fmol/min/ng | Substrate preference leu-ENK/insulin B chain (in words) ([7]; dual substrate assay, versus wild-type): no change in overall substrate preference | Ratio leu-ENK insulin B chain ([7]; ratio of rates, 15 µM insulin B chain and 64 µM leu-ENK together): 5.8 | Rate of hydrolysis of Insulin B Chain [8]: 0.06 ± 0.02 pmol/min/ng

B2: NEP^F563K: neprilysin active site mutant, Phe563 to lysine (low expressing) (protein, UniProt P08473 2-750, looked up, variant F563K)
Neprilysin: GKSESQMDITDINTPKPKKKQRWTPLEISLSVLVLLLTIIAVTMIALYATYDDGICKSSDCIKSAARLIQNMDATTEPCTDFFKYACGGWLKRNVIPETSSRYGNFDILRDELEVVLKDVLQEPKTEDIVAVQKAKALYRSCINESAIDSRGGEPLLKLLPDIYGWPVATENWEQKYGASWTAEKAIAQLNSKYGKKVLINLFVGTDDKNSVNHVIHIDQPRLGLPSRDYYECTGIYKEACTAYVDFMISVARLIRQEERLPIDENQLALEMNKVMELEKEIANATAKPEDRNDPMLLYNKMTLAQIQNNFSLEINGKPFSWLNFTNEIMSTVNISITNEEDVVVYAPEYLTKLKPILTKYSARDLQNLMSWRFIMDLVSSLSRTYKESRNAFRKALYGTTSETATWRRCANYVNGNMENAVGRLYVEAAFAGESKHVVEDLIAQIREVFIQTLDDLTWMDAETKKRAEEKALAIKERIGYPDDIVSNDNKLNNEYLELNYKEDEYFENIIQNLKFSQSKQLKKLREKVDKDEWISGAAVVNAFYSSGRNQIVFPAGILQPPKFSAQQSNSLNYGGIGMVIGHEITHGFDDNGRNFNKDGDLVDWWTQQSASNFKEQSQCMVYQYGNFSWDLAGGQHLNGINTLGENIADNGGLGQAYRAYQNYIKKNGEEKLLPGLDLNHKQLFFLNFAQVWCGTYRPEYAVNSIKTDVHSPGNFRIIGTLQNSAEFSEAFHCRKNSYMNPEKKCRVW
Activity relative to wild-type enzyme (Glut-Ala-Ala-Phe-MNA) [1]: < 1%

B3: NEP^S546T: neprilysin active site mutant, Ser546 to threonine (protein, UniProt P08473 2-750, looked up, variant S546T)
Neprilysin: GKSESQMDITDINTPKPKKKQRWTPLEISLSVLVLLLTIIAVTMIALYATYDDGICKSSDCIKSAARLIQNMDATTEPCTDFFKYACGGWLKRNVIPETSSRYGNFDILRDELEVVLKDVLQEPKTEDIVAVQKAKALYRSCINESAIDSRGGEPLLKLLPDIYGWPVATENWEQKYGASWTAEKAIAQLNSKYGKKVLINLFVGTDDKNSVNHVIHIDQPRLGLPSRDYYECTGIYKEACTAYVDFMISVARLIRQEERLPIDENQLALEMNKVMELEKEIANATAKPEDRNDPMLLYNKMTLAQIQNNFSLEINGKPFSWLNFTNEIMSTVNISITNEEDVVVYAPEYLTKLKPILTKYSARDLQNLMSWRFIMDLVSSLSRTYKESRNAFRKALYGTTSETATWRRCANYVNGNMENAVGRLYVEAAFAGESKHVVEDLIAQIREVFIQTLDDLTWMDAETKKRAEEKALAIKERIGYPDDIVSNDNKLNNEYLELNYKEDEYFENIIQNLKFSQSKQLKKLREKVDKDEWISGAAVVNAFYTSGRNQIVFPAGILQPPFFSAQQSNSLNYGGIGMVIGHEITHGFDDNGRNFNKDGDLVDWWTQQSASNFKEQSQCMVYQYGNFSWDLAGGQHLNGINTLGENIADNGGLGQAYRAYQNYIKKNGEEKLLPGLDLNHKQLFFLNFAQVWCGTYRPEYAVNSIKTDVHSPGNFRIIGTLQNSAEFSEAFHCRKNSYMNPEKKCRVW
Km ([1]; 37°C, 20 mM MES buffer, pH 6.5): 73 ± 6 µM

B4: NEP^S546A: neprilysin active site mutant, Ser546 to alanine (protein, UniProt P08473 2-750, looked up, variant S546A)
Neprilysin: GKSESQMDITDINTPKPKKKQRWTPLEISLSVLVLLLTIIAVTMIALYATYDDGICKSSDCIKSAARLIQNMDATTEPCTDFFKYACGGWLKRNVIPETSSRYGNFDILRDELEVVLKDVLQEPKTEDIVAVQKAKALYRSCINESAIDSRGGEPLLKLLPDIYGWPVATENWEQKYGASWTAEKAIAQLNSKYGKKVLINLFVGTDDKNSVNHVIHIDQPRLGLPSRDYYECTGIYKEACTAYVDFMISVARLIRQEERLPIDENQLALEMNKVMELEKEIANATAKPEDRNDPMLLYNKMTLAQIQNNFSLEINGKPFSWLNFTNEIMSTVNISITNEEDVVVYAPEYLTKLKPILTKYSARDLQNLMSWRFIMDLVSSLSRTYKESRNAFRKALYGTTSETATWRRCANYVNGNMENAVGRLYVEAAFAGESKHVVEDLIAQIREVFIQTLDDLTWMDAETKKRAEEKALAIKERIGYPDDIVSNDNKLNNEYLELNYKEDEYFENIIQNLKFSQSKQLKKLREKVDKDEWISGAAVVNAFYASGRNQIVFPAGILQPPFFSAQQSNSLNYGGIGMVIGHEITHGFDDNGRNFNKDGDLVDWWTQQSASNFKEQSQCMVYQYGNFSWDLAGGQHLNGINTLGENIADNGGLGQAYRAYQNYIKKNGEEKLLPGLDLNHKQLFFLNFAQVWCGTYRPEYAVNSIKTDVHSPGNFRIIGTLQNSAEFSEAFHCRKNSYMNPEKKCRVW
Km ([1]; 37°C, 20 mM MES buffer, pH 6.5): 118 ± 7 µM
